Numbered stars: 1 amine (or outer) side, 2 acyl side, 3 side chain; on linkers, the order of the positions; unused ones are H or OH. Square brackets hold non-standard residues; d marks the D form. * marks the point of attachment. CH═CH‑CON(CH3)CH2CH2Ph = CN(CCc1ccccc1)C(=O)/C=C/*; AAsp = aza-Asp, O=C(N(CC(=O)[*:3])N[*:1])[*:2]; CH═CH‑CON(CH3)CH2Ph = CN(Cc1ccccc1)C(=O)/C=C/*; CH═CH‑COOCH2Ph = O=C(/C=C/*)OCc1ccccc1; CH═CH‑COOEt = CCOC(=O)/C=C/*; Cbz = O=C(OCc1ccccc1)*

Common to all, as to test: cell-based or functional assay
The target of one test is T1, Caspase-2 (UniProt P42575 170-452, limits assumed).
T1 sequence (looked up): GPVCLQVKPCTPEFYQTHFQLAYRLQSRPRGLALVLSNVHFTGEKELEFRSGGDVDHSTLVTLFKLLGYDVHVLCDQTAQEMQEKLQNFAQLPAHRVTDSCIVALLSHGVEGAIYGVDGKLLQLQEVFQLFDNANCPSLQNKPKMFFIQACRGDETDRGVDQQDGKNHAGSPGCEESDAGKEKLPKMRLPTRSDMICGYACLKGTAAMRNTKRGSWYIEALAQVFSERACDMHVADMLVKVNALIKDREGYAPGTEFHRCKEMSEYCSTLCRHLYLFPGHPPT

Another test has as its target T2, Caspase-3 (UniProt P42574 29-277).
T2 sequence (looked up): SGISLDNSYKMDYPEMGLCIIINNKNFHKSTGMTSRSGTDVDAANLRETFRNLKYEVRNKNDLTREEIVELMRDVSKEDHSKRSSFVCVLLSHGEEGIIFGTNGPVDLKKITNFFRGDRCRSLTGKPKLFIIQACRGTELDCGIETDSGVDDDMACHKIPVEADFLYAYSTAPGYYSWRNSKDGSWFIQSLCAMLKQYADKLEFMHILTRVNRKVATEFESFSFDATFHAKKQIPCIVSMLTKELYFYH

For a further test, the target named is T3, Caspase-6 (UniProt P55212 24-293, limits assumed).
T3 sequence (looked up): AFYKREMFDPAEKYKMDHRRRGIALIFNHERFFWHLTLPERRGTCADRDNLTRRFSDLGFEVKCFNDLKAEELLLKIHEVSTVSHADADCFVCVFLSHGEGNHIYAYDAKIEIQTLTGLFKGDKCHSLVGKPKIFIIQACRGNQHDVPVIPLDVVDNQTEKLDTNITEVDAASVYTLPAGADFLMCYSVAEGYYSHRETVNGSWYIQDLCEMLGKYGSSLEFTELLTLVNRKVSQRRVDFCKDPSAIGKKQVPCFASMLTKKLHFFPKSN

The target of another test is T4, Caspase-7 (UniProt P55210 24-303).
T4 sequence (looked up): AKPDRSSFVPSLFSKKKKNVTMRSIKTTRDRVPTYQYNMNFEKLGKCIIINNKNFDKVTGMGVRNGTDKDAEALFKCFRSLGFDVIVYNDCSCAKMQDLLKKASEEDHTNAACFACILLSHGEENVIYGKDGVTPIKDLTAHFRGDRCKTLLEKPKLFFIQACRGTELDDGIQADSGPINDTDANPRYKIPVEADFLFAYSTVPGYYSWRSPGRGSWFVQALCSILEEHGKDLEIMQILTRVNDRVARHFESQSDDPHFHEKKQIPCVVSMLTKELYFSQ

In a further test the target is Caspase-8 (UniProt Q14790 217-479).
Sequence of Caspase-8 (Q14790 217-479 limits assumed): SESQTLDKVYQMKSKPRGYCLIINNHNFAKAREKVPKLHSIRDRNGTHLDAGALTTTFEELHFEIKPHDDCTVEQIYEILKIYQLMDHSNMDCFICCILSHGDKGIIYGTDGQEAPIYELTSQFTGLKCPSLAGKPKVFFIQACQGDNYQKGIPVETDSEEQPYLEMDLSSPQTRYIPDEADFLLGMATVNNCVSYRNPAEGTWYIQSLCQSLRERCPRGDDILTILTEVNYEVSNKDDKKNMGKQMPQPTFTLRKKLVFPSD
Another test addresses T5, Caspase-9 (UniProt P55211 1-416, limits assumed).
T5 sequence (looked up): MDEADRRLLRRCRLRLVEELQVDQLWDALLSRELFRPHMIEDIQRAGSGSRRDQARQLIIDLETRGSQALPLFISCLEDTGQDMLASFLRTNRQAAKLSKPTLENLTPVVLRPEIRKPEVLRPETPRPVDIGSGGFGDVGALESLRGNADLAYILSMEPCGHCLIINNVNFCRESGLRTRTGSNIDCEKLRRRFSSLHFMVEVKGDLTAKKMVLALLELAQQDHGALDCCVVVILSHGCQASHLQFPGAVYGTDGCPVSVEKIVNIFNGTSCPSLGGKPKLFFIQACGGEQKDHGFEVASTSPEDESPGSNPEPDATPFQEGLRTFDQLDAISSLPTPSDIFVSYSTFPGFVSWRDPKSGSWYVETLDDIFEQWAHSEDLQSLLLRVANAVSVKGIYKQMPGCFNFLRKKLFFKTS

A further test has as its target T6, Caspase-10 (UniProt Q92851 220-521, limits assumed).
T6 sequence (looked up): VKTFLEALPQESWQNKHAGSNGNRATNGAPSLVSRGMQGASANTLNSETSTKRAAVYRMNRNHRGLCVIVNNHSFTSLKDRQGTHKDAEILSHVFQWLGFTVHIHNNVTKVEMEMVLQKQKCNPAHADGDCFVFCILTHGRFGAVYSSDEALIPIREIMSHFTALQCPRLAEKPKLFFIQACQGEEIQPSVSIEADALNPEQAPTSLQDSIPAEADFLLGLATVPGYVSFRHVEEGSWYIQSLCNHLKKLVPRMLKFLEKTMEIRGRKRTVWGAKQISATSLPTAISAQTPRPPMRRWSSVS

B1: Cbz-Leu-Glu-Thr-AAsp-CH═CH-CONHCH2-4-F-Ph (peptide)
peptide: Cbz-LET[AAsp]-{CH═CH‑CONHCH2‑4‑F‑Ph}
In the case of B1, the k2 with Caspase-2 stood at 70 M⁻¹ s⁻¹; with Caspase-3 it was 4490 M⁻¹ s⁻¹; with Caspase-6 it was 3100 M⁻¹ s⁻¹; in the test with Caspase-7, 410 M⁻¹ s⁻¹; in the test with Caspase-8, 171000 M⁻¹ s⁻¹; in the test with Caspase-9, 1700 M⁻¹ s⁻¹. In the test with Caspase-10, this molecule had a k2 of 9380 M⁻¹ s⁻¹.

B2: Cbz-Glu-Val-AAsp-CH═CH-COOEt (peptide)
peptide: Cbz-Glu-Val-[AAsp]-{CH═CH‑COOEt}
SMILES: CCOC(=O)/C=C/C(=O)N(CC(=O)O)NC(=O)[C@@H](NC(=O)[C@H](CCC(=O)O)NC(=O)OCc1ccccc1)C(C)C
As for B2, the k2 in the test with Caspase-2 was 90 M⁻¹ s⁻¹; in the test with Caspase-3, 38600 M⁻¹ s⁻¹; in the test with Caspase-6 it was 3540 M⁻¹ s⁻¹; in the test with Caspase-7, 52400 M⁻¹ s⁻¹; in the test with Caspase-10, 8940 M⁻¹ s⁻¹.

B3: Cbz-Asp-Glu-Val-AAsp-CH═CH-CON(CH3)CH2Ph (peptide)
peptide: Cbz-DEV[AAsp]-{CH═CH‑CON(CH3)CH2Ph}
SMILES: CC(C)[C@H](NC(=O)[C@H](CCC(=O)O)NC(=O)[C@H](CC(=O)O)NC(=O)OCc1ccccc1)C(=O)NN(CC(=O)O)C(=O)/C=C/C(=O)N(C)Cc1ccccc1
Take B3: the k2 with Caspase-2 came out at 660 M⁻¹ s⁻¹; with Caspase-3 it was 2.64e+06 M⁻¹ s⁻¹; with Caspase-6, 9500 M⁻¹ s⁻¹; in the test with Caspase-7 it was 275000 M⁻¹ s⁻¹; in the test with Caspase-8, 90300 M⁻¹ s⁻¹; in the test with Caspase-9 it was 820 M⁻¹ s⁻¹. In the test with Caspase-10, the k2 turned out to be 29400 M⁻¹ s⁻¹.

B4: Cbz-Asp-Glu-Val-AAsp-CH═CH-CONHCH2-4-F-Ph (peptide)
peptide: Cbz-DEV[AAsp]-{CH═CH‑CONHCH2‑4‑F‑Ph}
For the molecule B4, the k2 with Caspase-3 was determined as 2.1e+06 M⁻¹ s⁻¹; with Caspase-6 it was 4400 M⁻¹ s⁻¹; with Caspase-7 it was 329000 M⁻¹ s⁻¹; with Caspase-8, 85100 M⁻¹ s⁻¹; with Caspase-9, 900 M⁻¹ s⁻¹; with Caspase-10 it was 37700 M⁻¹ s⁻¹.

B5: Cbz-Val-AAsp-CH═CH-4-Cl-Ph (peptide)
peptide: Cbz-Val-[AAsp]-{CH═CH‑4‑Cl‑Ph}
Turning to B5, in the test with Caspase-9, the k2 was found to be 19 M⁻¹ s⁻¹.

B6: Cbz-Asp-Glu-Val-AAsp-CH═CH-CON-tetrahydroquinoline (peptide)
peptide: Cbz-DEV[AAsp]-{CH═CH‑CO‑tetrahydroquinoline}
As for B6, the k2 in the test with Caspase-2 turned out to be 390 M⁻¹ s⁻¹; with Caspase-3 it was 2.3e+06 M⁻¹ s⁻¹; with Caspase-6 it was 5700 M⁻¹ s⁻¹; with Caspase-7, 137000 M⁻¹ s⁻¹; with Caspase-8, 118000 M⁻¹ s⁻¹; in the test with Caspase-9, 340 M⁻¹ s⁻¹. The molecule further yielded a k2 with Caspase-10 of 8330 M⁻¹ s⁻¹.

B7: Cbz-Asp-Glu-Val-AAsp-CH═CH-CON(CH3)CH2CH2Ph (peptide)
peptide: Cbz-DEV[AAsp]-{CH═CH‑CON(CH3)CH2CH2Ph}
SMILES: CC(C)[C@H](NC(=O)[C@H](CCC(=O)O)NC(=O)[C@H](CC(=O)O)NC(=O)OCc1ccccc1)C(=O)NN(CC(=O)O)C(=O)/C=C/C(=O)N(C)CCc1ccccc1
In the case of B7, the k2 worked out at 320 M⁻¹ s⁻¹ with Caspase-2; 1.18e+06 M⁻¹ s⁻¹ with Caspase-3; 4000 M⁻¹ s⁻¹ in the test with Caspase-6; 172000 M⁻¹ s⁻¹ in the test with Caspase-7; 31900 M⁻¹ s⁻¹ with Caspase-8; 425 M⁻¹ s⁻¹ with Caspase-9. The same molecule gave a k2 in the test with Caspase-10 of 9570 M⁻¹ s⁻¹.

B8: Cbz-Val-AAsp-CH═CH-CH═CH-CH3 (peptide)
peptide: Cbz-Val-[AAsp]-{CH═CH‑CH═CH‑CH3}
B8 gave a k2 with Caspase-7 of 56 M⁻¹ s⁻¹.

B9: Cbz-Asp-Glu-Val-AAsp-CH═CH-CON(CH2-1-Napth)2 (peptide)
peptide: Cbz-DEV[AAsp]-{CH═CH‑CON(CH2-1-Napth)2}
Consider B9, for which the k2 with Caspase-2 is 410 M⁻¹ s⁻¹; with Caspase-3, 5.62e+06 M⁻¹ s⁻¹; with Caspase-6, 29700 M⁻¹ s⁻¹; in the test with Caspase-7, 875000 M⁻¹ s⁻¹; with Caspase-8, 9460 M⁻¹ s⁻¹; with Caspase-9, 150 M⁻¹ s⁻¹. The molecule also showed a k2 in the test with Caspase-10 of 32500 M⁻¹ s⁻¹.

B10: Cbz-Asp-Glu-Val-AAsp-CH═CH-COOEt (cis) (peptide)
peptide: Cbz-DEV[AAsp]-{cis‑CH═CH‑COOEt}
Regarding B10, the k2 with Caspase-2 came out at 26200 M⁻¹ s⁻¹; with Caspase-3, 1.06e+06 M⁻¹ s⁻¹; in the test with Caspase-6, 11000 M⁻¹ s⁻¹; in the test with Caspase-7 it was 139000 M⁻¹ s⁻¹; with Caspase-8 it was 181000 M⁻¹ s⁻¹; in the test with Caspase-10, 13500 M⁻¹ s⁻¹.

B11: Cbz-Val-AAsp-CH═CH-CONH-nBu (peptide)
peptide: Cbz-Val-[AAsp]-{CH═CH‑CONH‑nBu}
Turning to B11, the k2 amounted to 184 M⁻¹ s⁻¹ with Caspase-3, 55 M⁻¹ s⁻¹ with Caspase-7 and 32 M⁻¹ s⁻¹ with Caspase-9.

B12: Cbz-Val-AAsp-CH═CH-COOEt (peptide)
peptide: Cbz-Val-[AAsp]-{CH═CH‑COOEt}
On to B12, for which the k2 came to 8000 M⁻¹ s⁻¹ with Caspase-3, 2680 M⁻¹ s⁻¹ with Caspase-7, 5240 M⁻¹ s⁻¹ with Caspase-9 and 389 M⁻¹ s⁻¹ with Caspase-10.

B13: Cbz-Val-AAsp-CH═CH-Cl (peptide)
peptide: Cbz-Val-[AAsp]-{CH═CH‑Cl}
modifications: also: cis isomer
Take B13: in the test with Caspase-9, the k2 turned out to be 15 M⁻¹ s⁻¹.

B14: Cbz-Leu-Glu-Thr-AAsp-CH═CH-CONHPh (peptide)
peptide: Cbz-LET[AAsp]-{CH═CH‑CONHPh}
Regarding B14, the k2 was 290 M⁻¹ s⁻¹ in the test with Caspase-2; 4700 M⁻¹ s⁻¹ with Caspase-3; 11400 M⁻¹ s⁻¹ in the test with Caspase-6; 730 M⁻¹ s⁻¹ with Caspase-7; 176000 M⁻¹ s⁻¹ with Caspase-8; 1190 M⁻¹ s⁻¹ in the test with Caspase-9. In the test with Caspase-10, this molecule returned a k2 of 6050 M⁻¹ s⁻¹.

B15: Cbz-Asp-Glu-Val-AAsp-CH═CH-COPh (peptide)
peptide: Cbz-DEV[AAsp]-{CH═CH‑COPh}
Regarding B15, the k2 came out at 165 M⁻¹ s⁻¹ with Caspase-2; 122000 M⁻¹ s⁻¹ with Caspase-3; 1800 M⁻¹ s⁻¹ with Caspase-6; 10800 M⁻¹ s⁻¹ with Caspase-7; 9720 M⁻¹ s⁻¹ with Caspase-8; 930 M⁻¹ s⁻¹ with Caspase-10.

B16: Cbz-Leu-Glu-Thr-AAsp-CH═CH-COOCH2Ph (peptide)
peptide: Cbz-LET[AAsp]-{CH═CH‑COOCH2Ph}
SMILES: CC(C)C[C@H](NC(=O)OCc1ccccc1)C(=O)N[C@@H](CCC(=O)O)C(=O)N[C@H](C(=O)NN(CC(=O)O)C(=O)/C=C/C(=O)OCc1ccccc1)[C@@H](C)O
As for B16, the k2 in the test with Caspase-2 was 480 M⁻¹ s⁻¹; with Caspase-3, 4600 M⁻¹ s⁻¹; with Caspase-6, 47600 M⁻¹ s⁻¹; with Caspase-7 it was 1570 M⁻¹ s⁻¹; with Caspase-8 it was 98400 M⁻¹ s⁻¹; with Caspase-10 it was 18900 M⁻¹ s⁻¹.

B17: Cbz-Leu-Glu-Thr-AAsp-CH═CH-CONHCH2CH2Ph (peptide)
peptide: Cbz-LET[AAsp]-{CH═CH‑CONHCH2CH2Ph}
With B17, the k2 in the test with Caspase-2 was 110 M⁻¹ s⁻¹; in the test with Caspase-3 it was 5400 M⁻¹ s⁻¹; in the test with Caspase-6 it was 2150 M⁻¹ s⁻¹; with Caspase-7, 440 M⁻¹ s⁻¹; with Caspase-8 it was 121000 M⁻¹ s⁻¹; with Caspase-9, 1760 M⁻¹ s⁻¹. Also, the k2 with Caspase-10 came out at 17900 M⁻¹ s⁻¹.

B18: Cbz-Leu-Glu-Thr-AAsp-CH═CH-CONHCH2Ph (peptide)
peptide: Cbz-LET[AAsp]-{CH═CH‑CONHCH2Ph}
Turning to B18, the k2 came out at 66 M⁻¹ s⁻¹ with Caspase-2; 1120 M⁻¹ s⁻¹ with Caspase-3; 1550 M⁻¹ s⁻¹ in the test with Caspase-6; 340 M⁻¹ s⁻¹ in the test with Caspase-7; 70200 M⁻¹ s⁻¹ with Caspase-8; 1400 M⁻¹ s⁻¹ with Caspase-9. Besides, the k2 with Caspase-10 was 14400 M⁻¹ s⁻¹.

B19: Cbz-Val-AAsp-CH═CH-CONHCH2Ph (peptide)
peptide: Cbz-Val-[AAsp]-{CH═CH‑CONHCH2Ph}
Take B19: the values for the k2 with Caspase-3, in the test with Caspase-7 and in the test with Caspase-9 were 185 M⁻¹ s⁻¹, 60 M⁻¹ s⁻¹ and 20 M⁻¹ s⁻¹, respectively.

The values above are taken from patent US20050256058A1 (GEORGIA TECH RESEARCH, published 2005).
